From patent US20240392004A1 (IMMUNOWAKE, published 2024)
Residue numbers refer to the chain shown, from its start. Names and notes keep the numbering of the source. Read-outs that look alike come from different tables or passages of the source.

Tests used:
Test in all cases: cell-based or functional assay
[1] = target: T1, human IL-12 receptor complex (IL-12Rβ1 and IL-12Rβ2) (human, UniProt P42701 24-662; Q99665 24-862)
[2] = target: T2, human PD-1 on cells (HEK-PD-1 reporter cells; activated PBMC) (human, UniProt Q15116 25-288)
[3] = target: T3, human IL-2 receptor (IL-2Rα, IL-2Rβ, IL-2Rγ) (human, UniProt P01589 22-272; P14784 27-551; P31785 23-369)
T3 sequence (looked up) 1: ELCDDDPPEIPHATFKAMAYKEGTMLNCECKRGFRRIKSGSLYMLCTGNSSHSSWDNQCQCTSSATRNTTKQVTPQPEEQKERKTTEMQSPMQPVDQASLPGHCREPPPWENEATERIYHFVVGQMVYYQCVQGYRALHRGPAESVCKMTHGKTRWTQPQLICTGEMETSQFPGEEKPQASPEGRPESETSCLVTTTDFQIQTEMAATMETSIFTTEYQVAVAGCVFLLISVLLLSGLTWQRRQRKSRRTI
T3 sequence (looked up) 2: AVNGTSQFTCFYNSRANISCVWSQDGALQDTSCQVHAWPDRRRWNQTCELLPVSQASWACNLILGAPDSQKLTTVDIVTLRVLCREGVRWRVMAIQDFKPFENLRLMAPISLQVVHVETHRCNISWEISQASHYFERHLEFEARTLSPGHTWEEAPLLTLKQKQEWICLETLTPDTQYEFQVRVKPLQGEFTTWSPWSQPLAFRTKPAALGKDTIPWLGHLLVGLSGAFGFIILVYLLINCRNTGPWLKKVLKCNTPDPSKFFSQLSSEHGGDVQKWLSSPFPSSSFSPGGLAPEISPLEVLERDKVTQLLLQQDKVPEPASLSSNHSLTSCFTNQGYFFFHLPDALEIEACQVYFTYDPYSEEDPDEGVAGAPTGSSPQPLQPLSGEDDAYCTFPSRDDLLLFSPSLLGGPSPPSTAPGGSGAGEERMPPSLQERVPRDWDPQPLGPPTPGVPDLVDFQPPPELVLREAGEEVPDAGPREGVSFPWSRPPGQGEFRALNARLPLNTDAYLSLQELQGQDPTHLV
T3 sequence (looked up) 3: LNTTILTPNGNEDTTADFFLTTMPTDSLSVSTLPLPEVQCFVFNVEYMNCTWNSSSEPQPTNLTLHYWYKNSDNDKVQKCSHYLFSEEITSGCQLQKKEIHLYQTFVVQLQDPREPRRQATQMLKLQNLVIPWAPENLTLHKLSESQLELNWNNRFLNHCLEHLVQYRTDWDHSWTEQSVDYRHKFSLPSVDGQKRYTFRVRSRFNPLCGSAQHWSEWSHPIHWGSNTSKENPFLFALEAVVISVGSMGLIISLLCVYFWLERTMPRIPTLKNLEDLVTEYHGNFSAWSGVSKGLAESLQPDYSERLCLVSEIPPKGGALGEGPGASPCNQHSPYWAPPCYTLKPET

[4] = target: T2, human PD-1 on cells (HEK-PD-1 reporter …); remark: listed apart in the source
[5] = target: T3, human IL-2 receptor (IL-2Rα, IL-2Rβ, …); remark: listed apart in the source
[6] = target: T4, human TIGIT on HEK-Blue reporter cells (human, UniProt Q495A1 22-244)
T4 sequence (looked up): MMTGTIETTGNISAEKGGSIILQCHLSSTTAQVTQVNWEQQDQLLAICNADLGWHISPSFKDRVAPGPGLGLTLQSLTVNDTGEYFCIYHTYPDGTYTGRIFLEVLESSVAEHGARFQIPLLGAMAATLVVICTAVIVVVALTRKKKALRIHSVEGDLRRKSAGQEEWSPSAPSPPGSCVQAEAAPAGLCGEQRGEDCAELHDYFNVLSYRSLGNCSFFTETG

[7] = target: T1, human IL-12 receptor complex (IL-12Rβ1 …); remark: listed apart in the source

T2 sequence (Q15116 25-288): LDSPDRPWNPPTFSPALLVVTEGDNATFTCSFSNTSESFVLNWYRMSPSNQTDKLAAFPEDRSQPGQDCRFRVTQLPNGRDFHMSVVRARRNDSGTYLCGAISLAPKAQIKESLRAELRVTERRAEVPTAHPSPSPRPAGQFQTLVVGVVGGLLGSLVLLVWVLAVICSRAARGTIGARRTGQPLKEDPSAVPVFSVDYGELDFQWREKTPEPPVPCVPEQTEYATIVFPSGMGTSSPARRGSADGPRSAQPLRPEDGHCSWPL
T1 sequence (Q99665 24-862, chain 2 of 2, other chains not shown): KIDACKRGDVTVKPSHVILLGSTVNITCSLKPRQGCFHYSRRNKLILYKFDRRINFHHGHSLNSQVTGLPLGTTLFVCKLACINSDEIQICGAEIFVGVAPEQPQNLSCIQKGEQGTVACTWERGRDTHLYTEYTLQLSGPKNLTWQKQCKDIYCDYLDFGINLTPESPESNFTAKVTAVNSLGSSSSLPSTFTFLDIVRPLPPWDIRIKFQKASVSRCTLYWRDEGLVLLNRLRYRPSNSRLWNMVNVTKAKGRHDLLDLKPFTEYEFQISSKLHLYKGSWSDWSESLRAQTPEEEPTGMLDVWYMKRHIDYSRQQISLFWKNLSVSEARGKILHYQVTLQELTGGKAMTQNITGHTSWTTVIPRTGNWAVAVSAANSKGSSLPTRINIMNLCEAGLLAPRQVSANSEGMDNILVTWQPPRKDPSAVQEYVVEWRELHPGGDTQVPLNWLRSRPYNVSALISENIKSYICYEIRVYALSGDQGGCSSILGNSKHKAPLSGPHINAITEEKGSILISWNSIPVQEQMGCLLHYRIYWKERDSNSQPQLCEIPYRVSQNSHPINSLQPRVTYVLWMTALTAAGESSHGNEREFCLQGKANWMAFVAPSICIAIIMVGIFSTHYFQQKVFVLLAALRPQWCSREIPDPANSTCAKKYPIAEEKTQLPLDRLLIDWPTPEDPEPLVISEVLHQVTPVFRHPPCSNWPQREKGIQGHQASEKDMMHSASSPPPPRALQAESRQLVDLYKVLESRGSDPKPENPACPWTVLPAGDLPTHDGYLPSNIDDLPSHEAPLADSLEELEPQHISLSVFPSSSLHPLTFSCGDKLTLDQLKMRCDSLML

B1: IL-12(E59A/F60A)/anti-PD-1(N99A) (antibody)
light: not shown
heavy: not shown
heavy (part 1 of 2): QVQLVESGGGVVQPGRSLRLDCKASGITFSNSGMHWVRQAPGKGLEWVAVIWYDGSKRYYADSVKGRFTISRDNSKNTLFLQMNSLRAEDTAVYYCATADDYWGQGTLVTVSSAS
heavy (part 2 of 2): EPKSCDKTHTCPPCPAPEKKGGPSVFLFPPKPKDTLMISRTPEVTCVVVDVSHEDPEVKFNWYVDGVEVHNAKTKPREEQYNSTYRVVSVLTVLHQDWLNGKEYKCKVSNKALPAPIEKTISKAKGQPREPQVYVLPPSREEMTKNQVSLLCLVKGFYPSDIAVEWESNGQPENRYMTWPPVLDSDGSFFLYSKLTVDKSRWQQGNVFSCSVMHEALHNHYTQKSLSLSPGK
- IL-12 signal transduction, HEK IL-12 [1]: < 0.2%
- IFN-γ release, activated PBMC [2]: 12 ng/mL
- IL-12 signal transduction, HEK-IL-12-PD-1 (high) [2]: 3%
- IL-12 signal transduction, HEK-IL-12-PD-1 (low) [2]: < 0.2%

B2: IL-12(E59A/F60A)/anti-PD-1(N99M) (antibody)
light: not shown
heavy: not shown
heavy (part 1 of 2): B1 heavy (part 1 of 2) with A99M
heavy (part 2 of 2): B1 heavy (part 2 of 2)
- IL-12 signal transduction, HEK IL-12 [1]: < 0.2%
- IFN-γ release, activated PBMC [2]: 13 ng/mL
- IL-12 signal transduction, HEK-IL-12-PD-1 (high) [2]: < 0.2%
- IL-12 signal transduction, HEK-IL-12-PD-1 (low) [2]: < 0.2%

B3: IL-2(R38D/K43E/E61R)/PD-L1(mut2)-Fc (Fc fusion)
chain 1: FTVTVPKDLYVVEYGSNMTIECKFPVEKQLDLAALQVYWMMEDKNIIQFVHGEEDLKVQHSSYRQRARLLKDQLSLGNAALQITDVKLQDAGVYTCLIAYKGADYKRITVKVNAPYNKINQRILVVDPVTSEHELTCQAEGYPKAEVIWTSSDHQVLSGKTTTTNSKREEKLFNVTSTLRINTTTNEIFYCTFRRLDPEENHTAELVIPELPLAHPPNERGGGGSGGGDKTHTCPPCPAPEDEGGPSVFLFPPKPKDTLMISRTPEVTCVVVDVSHEDPEVKFNWYVDGVEVHNAKTKPREEQYNSTYRVVSVLTVLHQDWLNGKEYKCKVSNKALPAPIEKTISKAKGQPREPQVYVYPPSREEMTKNQVSLTCLVKGFYPSDIAVEWESNGQPENNYKTTPPVLDEDGSFALVSKLTVDKSRWQQGNVFSCSVMHEALHNHYTQKSLSLSPGK
chain 2: FTVTVPKDLYVVEYGSNMTIECKFPVEKQLDLAALQVYWMMEDKNIIQFVHGEEDLKVQHSSYRQRARLLKDQLSLGNAALQITDVKLQDAGVYTCLIAYKGADYKRITVKVNAPYNKINQRILVVDPVTSEHELTCQAEGYPKAEVIWTSSDHQVLSGKTTTTNSKREEKLFNVTSTLRINTTTNEIFYCTFRRLDPEENHTAELVIPELPLAHPPNERGGGSGAPTSSSTKKTQLQLEHLLLDLQMILNGINNYKNPKLTDMLTFEFYMPKKATELKHLQCLERELKPLEEVLNLAQSKNFHLRPRDLISNINVIVLELKGSETTFMCEYADETATIVEFLNRWITFCQSIISTLTGGGGSGGGDKTHTCPPCPAPEKKGGPSVFLFPPKPKDTLMISRTPEVTCVVVDVSHEDPEVKFNWYVDGVEVHNAKTKPREEQYNSTYRVVSVLTVLHQDWLNGKEYKCKVSNKALPAPIEKTISKAKGQPREPQVYVLPPSREEMTKNQVSLLCLVKGFYPSDIAVEWESNGQPENRYMTWPPVLDSDGSFFLYSKLTVDKSRWQQGNVFSCSVMHEALHNHYTQKSLSLSPGK
- IL-2 signal transduction, HEK-IL-2 [3]: 16%
- IL-2 signal transduction, HEK-IL-2-PD-1 [4]: 76%

B4: IL-2(L18R/Q22E/R38D/K43E/E61R)/PD-L1(mut2)-Fc (Fc fusion)
chain 1: B3 chain 1
chain 2: B3 chain 2 with L243R, Q247E
- IL-2 signal transduction, HEK-IL-2 [3]: 4%
- IL-2 signal transduction, HEK-IL-2-PD-1 [4]: 35%

B5: IL-2(R38D/K43E/E61R/Q126T)/PD-L1(mut2)-Fc (Fc fusion)
chain 1: B3 chain 1
chain 2: B3 chain 2 with Q351T
- IL-2 signal transduction, HEK-IL-2 [3]: 2%
- IL-2 signal transduction, HEK-IL-2-PD-1 [4]: 20%

B6: IL-2(L18R/Q22E/R38D/K43E/E61R/Q126T)/PD-L1(mut2)-Fc (Fc fusion)
chain 1: B3 chain 1
chain 2: B3 chain 2 with L243R, Q247E, Q351T
- IL-2 signal transduction, HEK-IL-2 [3]: < 0.1%
- IL-2 signal transduction, HEK-IL-2-PD-1 [4]: 5%

B7: IL-2(L18R/Q22E/R38D/K43E/E61R/Q126T/S130R)/PD-L1(mut2)-Fc (Fc fusion)
chain 1: B3 chain 1
chain 2: B3 chain 2 with L243R, Q247E, Q351T, S355R
- IL-2 signal transduction, HEK-IL-2 [3]: < 0.1%
- IL-2 signal transduction, HEK-IL-2-PD-1 [4]: < 0.1%

B8: IL-2(L18R/Q22E/R38D/K43E/E61R/Q126T/S130R)/CD155-Fc/IL-12(E59A/F60A) (Fc fusion)
chain 1: WPPPGTGDVVVQAPTQVPGFLGDSVTLPCYLQVPNMEVTHVSQLTWARHGESGSMAVFHQTQGPSYSESKRLEFVAARLGAELRNASLRMFGLRVEDEGNYTCLFVTFPQGSRSVDIWLRVLAKPQNTAEVQKVQLTGEPVPMARCVSTGGRPPAQITWHSDLGGMPNTSQVPGFLSGTVTVTSLWILVPSSQVDGKNVTCKVEHESFEKPQLLTVNLTVYYPPEVSISGYDNNWYLGQNEATLTCDARSNPEPTGYNWSTTMGPLPPFAVAQGAQLLIRPVDKPINTTLICNVTNALGARQAELTVQVKEGPPSEHSGISRNGGGGSGGGDKTHTCPPCPAPEDEGGPSVFLFPPKPKDTLMISRTPEVTCVVVDVSHEDPEVKFNWYVDGVEVHNAKTKPREEQYNSTYRVVSVLTVLHQDWLNGKEYKCKVSNKALPAPIEKTISKAKGQPREPQVYVYPPSREEMTKNQVSLTCLVKGFYPSDIAVEWESNGQPENNYKTTPPVLDEDGSFALVSKLTVDKSRWQQGNVFSCSVMHEALHNHYTQKSLSLSPGKGGGGSGGGIWELKKDVYVVELDWYPDAPGEMVVLTCDTPEEDGITWTLDQSSEVLGSGKTLTIQVKAAGDAGQYTCHKGGEVLSHSLLLLHKKEDGIWSTDILKDQKEPKNKTFLRCEAKNYSGRFTCWWLTTISTDLTFSVKSSRGSSDPQGVTCGAATLSAERVRGDNKEYEYSVECQEDSACPAAEESLPIEVMVDAVHKLKYENYTSSFFIRDIIKPDPPKNLQLKPLKNSRQVEVSWEYPDTWSTPHSYFSLTFCVQVQGKSKREKKDRVFTDKTSATVICRKNASISVRAQDRYYSSSWSEWASVPCSGGGGSGGGSGGGGSRNLPVATPDPGMFPCLHHSQNLLRAVSNMLQKARQTLEFYPCTSEEIDHEDITKDKTSTVEACLPLELTKNESCLNSRETSFITNGSCLASRKTSFMMALCLSSIYEDLKMYQVEFKTMNAKLLMDPKRQIFLDQNMLAVIDELMQALNFNSETVPQKSSLEEPDFYKTKIKLCILLHAFRIRAVTIDRVMSYLNAS
chain 2: WPPPGTGDVVVQAPTQVPGFLGDSVTLPCYLQVPNMEVTHVSQLTWARHGESGSMAVFHQTQGPSYSESKRLEFVAARLGAELRNASLRMFGLRVEDEGNYTCLFVTFPQGSRSVDIWLRVLAKPQNTAEVQKVQLTGEPVPMARCVSTGGRPPAQITWHSDLGGMPNTSQVPGFLSGTVTVTSLWILVPSSQVDGKNVTCKVEHESFEKPQLLTVNLTVYYPPEVSISGYDNNWYLGQNEATLTCDARSNPEPTGYNWSTTMGPLPPFAVAQGAQLLIRPVDKPINTTLICNVTNALGARQAELTVQVKEGPPSEHSGISRNGGGSGAPTSSSTKKTQLQLEHLRLDLEMILNGINNYKNPKLTDMLTFEFYMPKKATELKHLQCLERELKPLEEVLNLAQSKNFHLRPRDLISNINVIVLELKGSETTFMCEYADETATIVEFLNRWITFCTSIIRTLTGGGGSGGGDKTHTCPPCPAPEKKGGPSVFLFPPKPKDTLMISRTPEVTCVVVDVSHEDPEVKFNWYVDGVEVHNAKTKPREEQYNSTYRVVSVLTVLHQDWLNGKEYKCKVSNKALPAPIEKTISKAKGQPREPQVYVLPPSREEMTKNQVSLLCLVKGFYPSDIAVEWESNGQPENRYMTWPPVLDSDGSFFLYSKLTVDKSRWQQGNVFSCSVMHEALHNHYTQKSLSLSPGK
- IL-2 signal transduction, HEK-IL-2 [5]: < 0.1%
- IL-2 signal transduction, HEK-IL-2-TIGIT [6]: < 0.1%
- IL-12 signal transduction, HEK-IL-12-TIGIT [6]: 24%
- IL-12 signal transduction, HEK-IL-12 [7]: 3%
